{"source": "paper PMC9911985", "about": "(Journal of Molecular Biology, 2023)", "note": "Where no end group is shown, it is not given here. MBP = not defined here", "data": [{"target": "nsp7 with a C-terminal strep-tag II (nsp7-strep), SARS-CoV-2 nonstructural protein 7 (SARS-CoV-2, UniProt P0DTD1 3860-3942)", "assay": "pull-down", "values": [{"binder": "{6xHis-MBP}-GWYIVFSCILLYVVFQKLSARLRALR (domain or fragment, reading uncertain)", "note": "[6xHis-MBP-selenos 34–59]", "binding result": "binds"}, {"binder": "{6xHis-MBP}-SCILLYVVFQKLSARLRALRQRQLDR (domain or fragment, reading uncertain)", "note": "[6xHis-MBP-selenos 40–65]", "binding result": "binds"}, {"binder": "{6xHis-MBP}-SCILLYVVFQKLSARLRALR (domain or fragment, reading uncertain)", "note": "[6xHis-MBP-selenos 40–59]", "binding result": "binds"}, {"binder": "{6xHis-MBP}-GWYIVFSCILLYVVFQKLSARLRALRQRQLDR (domain or fragment, reading uncertain)", "note": "[6xHis-MBP-selenos 34–65]", "binding result": "binds"}]}]}
